Data taken from patent US20110286958A1, “HPMA POLYMER PLATINUM CHELATES” (Access Pharmaceuticals, Inc., priority 2010, published 2011).
Ends that are not written are not given here. Ama = amidomalonate chelating group bound to Pt

Key:
[1] = 27° C.; cited from earlier work
[2] = Release of small molecule Pt species from polymer-linker-Pt complexes at 37° C. in PBS; assay type: physicochemical; details: for Percent small platinum released from 1R,2R-DACH Pt(II) complex at 37° C. in PBS, 3 hours / Percent small platinum released from 1R,2R-DACH Pt(II) complex at 37° C. in PBS, 24 hours: 1R,2R-DACH stable chelate; for Percent small platinum released from cis-diammine Pt(II) complex at 37° C. in PBS, 3 hours / Percent small platinum released from cis-diammine Pt(II) complex at 37° C. in PBS, 24 hours: cis-diammine stable ligands
Source text: The compound tested comprised a poly(N-(2-hydroxypropyl)methacrylamide (10%)-co-methacrylamide (90%)) backbone polymer and either cis-diammine or 1R,2R-diaminocyclohexane (DACH) as the stable ligands/chelate of the Pt complex. The leaving-ligand comprised an N,O bidentate ligand with amidoaspartate (Asp) or amidomalonate (Ama).

[3] = Relative toxicity of Compound 1 made by two different processes, body weight in mice; assay type: in vivo, Female C57BL/6 mice; details: murine study; new process versus process of U.S. Pat. No. 7,166,733
Description: Biological evaluation can be carried out with the methods as described below.
Female C57BL/6 mice were randomized into 7 groups of 5 mice each. Each mouse was identified by ear notch and followed individually throughout the study. Animals were observed and weighed prior to dosing for establishment of dosing volumes. All mice were dosed by a single IP injection with either a) Compound 1 made by the processes described herein, b) Compound 1 made by the process described in U.S. Pat. No. 7,166,733, or c) vehicle control. Three doses of each compound were tested: 75 mg Pt/kg, 100 mg Pt/kg and 150 mg Pt/kg. Test compounds were dissolved in isotonic glucose and administered in a volume of 0.4 mL per 20 g body weight. Gross observations and body weights were recorded daily for 14 days. Percent body weight change for each animal on each day was calculated as the percent change from their body weight recorded on day 1 just prior to injection of compounds.

Row | Molecule | pKa1 [1] | pKa2 [1] | Percent small platinum released from 1R,2R-DACH Pt(II) complex at 37° C. in PBS, 3 hours [2] [%] | Percent small platinum released from 1R,2R-DACH Pt(II) complex at 37° C. in PBS, 24 hours [2] [%] | Percent small platinum released from cis-diammine Pt(II) complex at 37° C. in PBS, 3 hours [2] [%] | Percent small platinum released from cis-diammine Pt(II) complex at 37° C. in PBS, 24 hours [2] [%] | safety profile [3]
1 | NC1CCCCC1N.O.O.O=[N+]([O-])[O-].O=[N+]([O-])[O-].[Pt+2] (stereo not drawn) [diaqua platinum species, 1R,2R-DACH-diaquaplatinum (II) dinitrate] | 5.4 | 7.2 | – | – | – | – | –
2 | Gly-Phe-Leu-Gly-Ama=Pt= (GFLG-Ama; also: Pt complex via Ama (=Pt=)) | – | – | 0.7 | 2.4 | 0.7 | 2.1 | –
3 | Gly-Phe-Leu-Gly-Asp=Pt= (GFLGD; also: Pt conjugation (Asp=Pt=)) | – | – | 2.0 | 6.5 | 1.5 | 4.7 | –
4 | poly(HPMA)-GGG-Ama=PtDACH [Compound 1] | – | – | – | – | – | – | safety profile identical to that of Compound 1 made by the processes described previously
